Patent publication US10234460B2, “Macrocyclic peptide, method for producing same, and screening method using macrocyclic peptide library” (The University of Tokyo, priority 2013, dated 2019)
Bridge positions count the residues as written; N and C are the ends. Square brackets hold non-standard residues; d marks the D form. Ends that are not written are not given here. * marks the point of attachment. chloroacetamidine = chloroacetamidine warhead on ornithine δ-NH2, N=C(CCl)*; Ahp(2) = CCCCC[C@H](N)C(=O)O; Orn = NCCC[C@H](N)C(=O)O

Experiments:
[1] = target: T1, PAD4 (Homo sapiens, UniProt Q9UM07); test: In vitro PAD4 inhibition assay, colorimetric analysis with COLDER solution, substrate BAEE; format: biochemical; settings: peptide 0 μM to 50 μM, PAD4 0.2 μM, BAEE 10 mM; for PAD4 inhibition, dose dependence / PAD4 inhibitory activity compared with the existing PAD4 inhibitor: initial data
T1 construct: purchased Modiquest Research MQ 16.206-10
T1 sequence (Q9UM07 whole entry): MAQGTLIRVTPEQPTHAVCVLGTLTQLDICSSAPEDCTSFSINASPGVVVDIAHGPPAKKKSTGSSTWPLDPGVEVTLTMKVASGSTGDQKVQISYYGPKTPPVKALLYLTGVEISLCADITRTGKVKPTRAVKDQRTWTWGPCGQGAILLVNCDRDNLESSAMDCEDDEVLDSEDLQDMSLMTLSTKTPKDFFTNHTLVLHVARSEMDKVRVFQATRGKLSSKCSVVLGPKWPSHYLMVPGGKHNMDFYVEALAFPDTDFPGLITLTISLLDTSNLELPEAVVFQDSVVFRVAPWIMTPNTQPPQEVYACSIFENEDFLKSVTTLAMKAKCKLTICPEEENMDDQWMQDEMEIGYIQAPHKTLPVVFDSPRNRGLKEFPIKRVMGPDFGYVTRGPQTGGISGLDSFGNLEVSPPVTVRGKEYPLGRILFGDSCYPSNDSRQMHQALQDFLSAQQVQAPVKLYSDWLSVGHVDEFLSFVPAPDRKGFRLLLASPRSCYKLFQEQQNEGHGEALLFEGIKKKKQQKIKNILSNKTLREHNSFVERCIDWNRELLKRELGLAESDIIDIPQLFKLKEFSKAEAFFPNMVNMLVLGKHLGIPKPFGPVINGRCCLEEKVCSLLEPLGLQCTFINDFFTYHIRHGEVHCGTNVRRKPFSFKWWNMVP
Experimental: Human PAD4 was purchased from Modiquest Research (catalog no. MQ 16.206-10). Human PAD4 is a protein having NCBI accession no. CCDS180.1, a molecular weight of 74.08 kDa, and 663 amino acids.
PAD4 inhibition assay was performed using various concentrations of VB peptides in a reaction buffer containing 100 mM HEPES (pH 7.6) and 50 mM NaCl.
Before reaction was initiated by adding BAEE (final concentration: 10 mM), the above reaction mixture was incubated with PAD4 (0.2 μM) (in the presence of 5 mM CaCl2) at 37° C. for 15 minutes. After reaction for 30 minutes, the reaction was terminated by flash freezing in liquid nitrogen. For color development, 200 μL of a freshly prepared COLDER solution (2.25 M H3PO4, 4.5 M H2SO4, 1.5 mM NH4Fe(SO4), 20 mM diacetyl monoxime, and 1.5 mM thiosemicarbazide) was added to each of the reaction terminated solutions. The resulting mixture was vortexed to ensure complete mixing and then, incubated at 95° C. for 30 minutes (Firestein, G. S., 2003, Nature, 423(6937), 356-61; Jones, J. E., et al., ACS chemical biology, 7(1), 160-5). The absorbance at 540 nm was measured. Compared with a standard curve of Cit, the concentration of Cit produced during the reaction was determined.

[2] = system: HeLa cells; test: Intracellular introduction of fluorescently labeled peptides into living HeLa cells, confocal microscope; format: cell-based; settings: 37° C., 60 minutes
Experimental: HeLa cells proliferated on a 90-mm plate until they reached sub-confluence and Trypsin/EDTA were treated at 37° C. for […] to release the cells from the plate. A culture dish (Iwaki) having a 35-mm glass bottom was seeded with 1×10^4 cells. […] The latter ones were used for confirming cell integrity. The intracellular distribution of the fluorescently labeled peptide was analyzed using a Leica TCS SP2 microscope equipped with an N PLAN 40× objective lens, without washing and immobilization. The HeLa cells were incubated with the fluorescently labeled peptides, at 37° C. for 60 minutes. […], they were observed under a confocal fluorescence microscope. All the assays were performed using a small dish with a glass bottom so that not a sample having the cells mounted thereon but a sample in a buffer was observed. DRAQ7 (3 μM) is a far-red fluorescent dye and it dyes only the nuclei of permeable dead cells. When the peptides are incubated, this DRAQ7 is added to find whether the cells are alive or not.

Substance	PAD4 inhibitory ability relative to Cl-amidine and VB1C12 peptide [1]	concentration necessary for incorporation in HeLa cells [2]	PAD4 inhibition, dose dependence [1]	PAD4 inhibitory activity compared with the existing PAD4 inhibitor [1]
VB1C12-Cl-amidine analog: VB1C12 peptide with a haloacetamidine warhead introduced by modifying the Arg residue (ornithine δNH2 chloroacetamidine) (Ac-[dF]NA[Ahp(2)]YPY[Orn](chloroacetamidine)PP[Ahp(2)]TSC; bridge N-14; not fully specified (C-terminus, bridges))	2.7 times	–	–	–
^ClAc-D-F-D-A-Ahep-Y-P-F-R-P-P-Ahep-A-H-C (Ac-[dF]DA[Ahp(2)]YPFRPP[Ahp(2)]AHC; bridge N-14; not fully specified (C-terminus, bridges); printed as ClAc-D-F-D-A-Ahep-Y-P-F-R-P-P-Ahep-A-H-C) [VB1C20]	–	at least 10 μM	dose-dependently inhibit PAD4	not stronger than that of the existing PAD4 inhibitor
^ClAc-D-F-N-A-Ahep-Y-P-Y-R-P-P-Ahep-T-S-C ({CH2CO}-[dF]NA[Ahp(2)]YPYRPP[Ahp(2)]TSC-NH2; thioether N-14; SMILES CCCCC[C@@H]1NC(=O)[C@H](C)NC(=O)[C@H](CC(N)=O)NC(=O)[C@@H](Cc2ccccc2)NC(=O)CSC[C@@H](C(N)=O)NC(=O)[C@H](CO)NC(=O)[C@H]([C@@H](C)O)NC(=O)[C@H](CCCCC)NC(=O)[C@@H]2CCCN2C(=O)[C@@H]2CCCN2C(=O)[C@H](CCCNC(=N)N)NC(=O)[C@H](Cc2ccc(O)cc2)NC(=O)[C@@H]2CCCN2C(=O)[C@H](Cc2ccc(O)cc2)NC1=O) [VB1C12]	–	–	dose-dependently inhibit PAD4	not stronger than that of the existing PAD4 inhibitor
